Assay results taken from patent US20040072368A1, “Lipoprotein receptor” (priority 2002, published 2004).

Experiments:
[1] = target: β-subunit of ATP synthase (F1 fraction) exposed on submitochondrial particles; experiment: competition with 5 µg/ml 125I-labeled HDL3 on submitochondrial particles, 2 h at 4 °C
[2] = target: β-subunit of ATP synthase (F1 fraction) exposed on submitochondrial particles; experiment: binding of 5 µg/ml 125I-labeled HDL3 to submitochondrial particles, 2 h at 4 °C, no competitor; details: scale: ng HDL3 protein bound per mg of mitochondrial proteins
[3] = target: porcine liver plasma membrane proteins eluted from apoA-I affinity chromatography; experiment: SPR (Biacore), 1.5 µg of proteins injected on the apoA-I sensor chip
[4] = target: total solubilised porcine liver plasma membrane proteins; experiment: SPR (Biacore 3000, B1 chip), apoA-I immobilised by amine coupling, solubilised membrane proteins injected

IC50 (read off the curve) [1]	100% specific binding [2]	relative increase of binding against crude solubilised homogenate [3]	Kd [4]	Substance
800 nM	2050			HDL3 (from UniProt P02647 19-267)
		4 fold	1 nM	lipid free-apolipoprotein A-I (free-apoA-I) (from UniProt P02647 25-267) (ligand)
